Results published in paper PMC5038948, “The Role of Neutrophil Proteins on the Amyloid Beta-RAGE Axis” (PLoS ONE, 2016).
Read-outs that look alike come from different tables or passages of the source.

How the values were obtained:
RAGE Fc chimera [1] = target: T1, RAGE Fc chimera (Homo sapiens, UniProt Q15109); experiment: ELISA: binding of RAGE to coated neutrophil proteins; design: purchased R&D Systems Inc. (Minneapolis, MN); conditions: for Log binding (RAGE): wells coated 0.5 μg/well protein, log-transformed OD 492 nm, mean ± SEM
Method: (§1) The plates were washed three times with PBS containing 0.05% tween (PBST), and then blocked in PBST containing 3% bovine serum albumin (BSA). Indicated proteins were added to the plate in 50 μL PBST containing 0.1% BSA and incubated at 37°C for 70 mins. Wells were washed four times with PBST, and then incubated with 50 μL of goat anti-RAGE primary antibody (0.5 μg/ml) or mouse anti-APP/Aβ antibody (0.5 μg/ml-1 μg/ml) for 1 h. After washing the wells four times with PBST, 50 μL of rabbit anti-goat at 0.16 μg/ml or donkey anti-mouse at 0.04–0.08 μg/ml secondary antibodies were added for 1 h at room temperature.
Goat anti-RAGE primary antibody at 0.5 μg/ml was used to detect bound RAGE.
(§2) All statistics were performed using Graph Pad Prism 6 (GraphPad Software, La Jolla, CA). Data are represented as mean± SEM of results. […] Two-way analysis of variances (ANOVAs) were performed with Dunnett’s multiple comparison tests. […] Kruskal-Wallis tests with Dunn’s multiple comparison tests were used to analyze binding by Far-Western dot blotting (see figure legends 3 and 6 for details on multiple comparison tests). […] To obtain dissociation constants (Kd), half-maximal inhibitory concentrations (IC50), and maximum absorbance values, BSA was subtracted as background and values were fitted to a curve of nonlinear regression.

RAGE Fc chimera [2] = target: T1, RAGE Fc chimera; experiment: Far-Western dot blot: binding of RAGE to spotted proteins ± GM-0111; design: purchased R&D Systems Inc. (Minneapolis, MN); conditions: 1 μg spotted protein (0.5 μg Aβ1–42)
Method: as §2

RAGE Fc chimera [3] = target: T1, RAGE Fc chimera; experiment: ELISA: Aβ1–42 binding to RAGE after pre-incubation of Aβ1–42 with neutrophil proteins; design: purchased R&D Systems Inc. (RAGE Fc chimera); Bachem (Aβ1–42); conditions: for Kd: read-out: KD value for Aβ1–42 binding to RAGE
Method: as §1
In this set of experiments, the maxisorp plates were coated with RAGE Fc chimera (0.5 μg/well, 83.3 nM) overnight at 4°C.
as §2

Aβ1–42 [4] = target: T2, Aβ1–42 (Homo sapiens, UniProt P05067); experiment: Far-Western dot blot: binding of Aβ1–42 to spotted neutrophil proteins; conditions: Aβ1–42 […] (56 nM) with protease inhibitor cocktail; 1 μg spotted protein
T2 construct: Amyloid beta 1–42 (Aβ1–42), a known RAGE ligand; purchased Bachem (Torrance, CA)
Method: After spotting, membranes were rinsed with ultrapure water, and Ponceau S (Sigma Aldrich) was used to stain for spotted proteins. Ponceau S was rinsed off with ultrapure water, and membrane blots were blocked for 2 h at room temperature in PBST containing 3% BSA. […] Blots were washed three times with PBST for 10 min, and then incubated with either rabbit anti-RAGE primary antibody (0.8μg/ml) or mouse anti-APP/Aβ (0.25μg/ml) for 2 h at room temperature. Blots were washed three times with PBST for 10 min, and then incubated with donkey anti-rabbit or donkey anti-mouse secondary antibodies at 0.04μg/ml for 45 min at room temperature. Blots were washed three times with PBST. Enhanced chemiluminescent or SuperSignal West femto maximum sensitivity substrates (Pierce) were used to develop blots. Mean dot densities were quantified and normalized to ponceau S dot densities using Image J software (National Institutes of Health (NIH), Bethesda, MD).
Blots were incubated with rocking overnight at 4°C.
All statistics were performed using Graph Pad Prism 6 (GraphPad Software, La Jolla, CA). Data are represented as mean± SEM of results. […] To obtain dissociation constants (Kd), half-maximal inhibitory concentrations (IC50), and maximum absorbance values, BSA was subtracted as background and values were fitted to a curve of nonlinear regression.

Aβ1–42 [5] = target: T2, Aβ1–42; experiment: ELISA: binding of Aβ1–42 to coated neutrophil proteins; conditions: for Log binding (Aβ1–42): 0.5 μg/well coated protein, with protease inhibitor cocktail, log OD 492 nm, mean ± SEM, n = 3
Method: as §1, §2

Aβ1–42 binding to RAGE = target: T3, Aβ1–42 binding to RAGE (Homo sapiens, UniProt Q15109); experiment: ELISA: competitive inhibition of Aβ1–42 binding to RAGE by neutrophil proteins added simultaneously
T3 construct: purchased R&D Systems Inc. (RAGE Fc chimera); Bachem (Aβ1–42)
Method: as §1, §2

T1 sequence (Q15109 with tags, fused parts or gaps limits assumed): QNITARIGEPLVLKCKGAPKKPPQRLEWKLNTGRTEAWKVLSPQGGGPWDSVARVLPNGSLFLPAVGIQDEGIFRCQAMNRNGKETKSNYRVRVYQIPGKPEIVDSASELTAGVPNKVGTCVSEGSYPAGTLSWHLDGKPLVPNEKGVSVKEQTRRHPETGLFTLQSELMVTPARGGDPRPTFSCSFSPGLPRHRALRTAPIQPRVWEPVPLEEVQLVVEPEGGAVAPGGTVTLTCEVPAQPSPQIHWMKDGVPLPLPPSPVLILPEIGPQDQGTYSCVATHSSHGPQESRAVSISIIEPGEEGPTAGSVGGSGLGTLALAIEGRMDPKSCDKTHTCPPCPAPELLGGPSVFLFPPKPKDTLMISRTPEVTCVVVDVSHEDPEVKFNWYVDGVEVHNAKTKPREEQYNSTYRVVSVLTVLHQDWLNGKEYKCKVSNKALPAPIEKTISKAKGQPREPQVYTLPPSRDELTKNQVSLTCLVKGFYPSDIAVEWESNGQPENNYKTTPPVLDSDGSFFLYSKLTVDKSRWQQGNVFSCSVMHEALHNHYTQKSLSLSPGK
T3 sequence (Q15109 with tags, fused parts or gaps limits assumed): as above

B1: cationic antimicrobial protein of 37kDa (protein)
chain: IVGGRKARPRQFPFLASIQNQGRHFCGGALIHARFVMTAASCFQSQNPGVSTVVLGAYDLRRRERQSRQTFSISSMSENGYDPQQNLNDLMLLQLDREANLTSSVTILPLPLQNATVEAGTRCQVAGWGSQRSGGRLSRFPRFVNVTVTPEDQCRPNNVCTGVLTRRGGICNGDGGTPLVCEGLAHGVASFSLGPCGRGPDFFTRVALFRDWIDGVLNNPGPGPA
notes: neutrophil protein purified from human neutrophils (Athens Research & Technology)
maximum absorbance value for RAGE binding (RAGE Fc chimera [1]; ELISA, BSA subtracted as background, nonlinear regression fit): 2.49
Log binding (RAGE) (RAGE Fc chimera [1]; RAGE 0 nM (background)): -0.623
Log binding (RAGE) (RAGE Fc chimera [1]; RAGE 0.83 nM): • 0.112±0.041 • p<0.0001
Log binding (RAGE) (RAGE Fc chimera [1]; RAGE 1.67 nM): • 0.228±0.043 • p<0.0001
Log binding (RAGE) (RAGE Fc chimera [1]; RAGE 3.33 nM): • 0.325±0.064 • p<0.0001
binding of RAGE (far-Western dot blot) (RAGE Fc chimera [2]): strong binding
maximum absorbance (MA) for Aβ1–42 binding to RAGE (RAGE Fc chimera [3]; Aβ1–42 pre-incubated with CAP37 500 ng/ml): 3.05
maximum absorbance (MA) for Aβ1–42 binding to RAGE (RAGE Fc chimera [3]; Aβ1–42 pre-incubated with CAP37 1 μg/ml): 3.70
maximum absorbance value for Aβ1–42 binding to RAGE (RAGE Fc chimera [3]; Aβ1–42 pre-incubated with CAP37 2 μg/ml): 3.27 OD 492 nm
Kd (RAGE Fc chimera [3]; Aβ1–42 pre-incubated overnight 4°C with CAP37 500 ng/ml (21 nM)): 13.8 nM
Kd (RAGE Fc chimera [3]; Aβ1–42 pre-incubated overnight 4°C with CAP37 1 μg/ml (42 nM)): 59.3 nM
Kd (RAGE Fc chimera [3]; Aβ1–42 pre-incubated overnight 4°C with CAP37 2 μg/ml (83 nM)): 149 nM
binding of Aβ1–42 (far-Western dot blot) (Aβ1–42 [4]): strong binding
Log binding (Aβ1–42) (Aβ1–42 [5]; Aβ1–42 0 nM (background)): • -0.907±0.139 • p = 0.005
Log binding (Aβ1–42) (Aβ1–42 [5]; Aβ1–42 3.47 nM): • -0.556±0.047 • p<0.0001
Log binding (Aβ1–42) (Aβ1–42 [5]; Aβ1–42 13.89 nM): • -0.138±0.047 • p<0.0001
Log binding (Aβ1–42) (Aβ1–42 [5]; Aβ1–42 27.78 nM): • 0.137±0.043 • p<0.0001
Log binding (Aβ1–42) (Aβ1–42 [5]; Aβ1–42 55.56 nM): • 0.304±0.039 • p<0.0001
maximum absorbance value for Aβ1–42 binding (Aβ1–42 [5]; ELISA with protease inhibitors, BSA subtracted, nonlinear regression fit): 2.86
maximal inhibition of Aβ1–42 binding to RAGE in the absence of protease inhibitors (Aβ1–42 binding to RAGE; no protease inhibitors, highest dose of protein): complete
inhibition of Aβ1–42 binding to RAGE in the presence of protease inhibitors (Aβ1–42 binding to RAGE; with protease inhibitor cocktail, Aβ1–42 11 nM): only partial
